Measurements as given in patent US12534534 (F STAR BETA, dated 2026).
Changes are numbered by the printed parent chain. Values belong to the binder of their own block, whether it stands above or below them.

What was measured:
[1] = target: T1, human CD137 on DO11.10-hCD137 cells (human, UniProt Q07011 24-255); experiment: cell-based or functional assay
[2] = target: T1, human CD137 on DO11.10-hCD137 cells; experiment: cell binding at 10 nM to DO11.10-hCD137 cells, against the parent FS20-22-49AA/FS30-5
[3] = target: T1, human CD137 on DO11.10-hCD137 cells; experiment: cell binding at 10 nM to DO11.10-hCD137 cells, against the parent FS20-22-49AA/FS30-16
[4] = target: T2, cCD137-mFc-Avi (cynomolgus, Homodimer through the mouse Fc (one chain given). In the biotinylated version one biotin sits on the Avi-tag lysine of each monomer.); experiment: SPR (Biacore 3000), mAb captured by anti-human Fc, dimeric CD137-mFc as analyte, 1:1 model with mass transfer
T2 construct: dimer; biotinylated version used on streptavidin plates; also called cyno CD137-mFc-Avi; cyno CD137-mFc
T2 chain: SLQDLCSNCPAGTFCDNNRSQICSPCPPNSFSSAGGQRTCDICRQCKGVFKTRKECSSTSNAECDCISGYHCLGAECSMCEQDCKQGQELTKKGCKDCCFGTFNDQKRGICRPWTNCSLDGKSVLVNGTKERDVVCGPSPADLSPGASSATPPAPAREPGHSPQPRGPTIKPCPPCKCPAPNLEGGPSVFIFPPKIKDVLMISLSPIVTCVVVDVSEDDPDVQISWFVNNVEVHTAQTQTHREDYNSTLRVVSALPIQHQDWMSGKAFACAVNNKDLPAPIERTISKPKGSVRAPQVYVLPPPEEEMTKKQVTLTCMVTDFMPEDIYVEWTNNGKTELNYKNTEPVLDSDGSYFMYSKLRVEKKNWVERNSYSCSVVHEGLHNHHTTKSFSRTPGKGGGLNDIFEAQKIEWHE
Description: Briefly, 25 µg/ml anti-human IgG (Fc) antibody (GE Healthcare, Human Antibody Capture Kit, BR100839) was coated on flow cells 1, 2, 3 and 4 of a Biacore sensor chip CM5 (GE Healthcare, BR100012) for 3 minutes at 5 µl/min, achieving a final response of approximately 4300 RU. The mAb² clones, diluted in HBS-EP buffer (GE Healthcare, BR100188) at 0.5 µg/ml, were injected individually on flows cell 2, 3 and 4 at 30 µl/min to achieve a response of approximately 80 RU. […] Regeneration was achieved by injecting 3 M magnesium chloride (GE Healthcare, Human Antibody Capture Kit, BR100839) for 30 seconds at a rate of 30 µl/min. […] These slightly less stringent conditions were used to assess whether this molecule could bind to cyno CD137-mFc. Subtracted data (flow cell 2-flow cell 1, flow cell 3-flow cell 1, or flow cell 4-flow cell 1) were analysed using BIAevaluation 3.2 Software (GE Healthcare) to identify binding using the model 1:1 binding with mass transfer, with refractive index (RI) constant 0.

[5] = target: T3, CD40-mFc (human, UniProt P25942 21-193); experiment: SPR, antigen immobilised on CM5 chip
T3 construct: in-house produced; not shown: mFc part
T3 sequence (P25942 21-193): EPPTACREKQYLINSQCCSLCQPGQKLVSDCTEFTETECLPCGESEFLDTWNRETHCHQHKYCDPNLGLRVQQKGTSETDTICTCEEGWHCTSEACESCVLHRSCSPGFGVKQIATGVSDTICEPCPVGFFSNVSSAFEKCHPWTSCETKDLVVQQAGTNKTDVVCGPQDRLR
Description: (§1) Flow cell 1 was run as a blank immobilisation. The five FS20-22-49AA/FS30 mAb² were diluted to 1 μM and 1 nM in 1×HBS-EP buffer (GE Healthcare, product code BR100188), allowed to flow over the chip for 3 min and then allowed to dissociate for 4 minutes. A 30-second injection of 10 mM glycine pH 1.5 was used for regeneration. […] Binding levels were determined at the end of the association phase and compared.
(§2) Specificity was tested against the same five human TNFRSF members closely-related to CD137 (TNFRSF1A, TNFRSF1B, GITR, NGFR and CD40) plus an additional closely-related TNFRSF member, human DR6 (DR6-Fc; R&D Systems, 144-DR-100), using SPR as described in Example 3.1.

[6] = target: T4, TNFRSF1B-Fc (human, UniProt P20333 23-257); experiment: SPR, antigen immobilised on CM5 chip
T4 construct: bought; also called TNFRSF1B (R&D Systems, 726-R2-050); not shown: Fc part of the bought fusion
T4 sequence (looked up): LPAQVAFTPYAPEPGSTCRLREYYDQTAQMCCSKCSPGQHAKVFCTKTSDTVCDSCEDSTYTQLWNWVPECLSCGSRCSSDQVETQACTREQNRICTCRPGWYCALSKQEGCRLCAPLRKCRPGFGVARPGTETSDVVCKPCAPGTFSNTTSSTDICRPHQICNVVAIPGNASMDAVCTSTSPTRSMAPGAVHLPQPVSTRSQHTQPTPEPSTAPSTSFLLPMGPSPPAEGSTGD
Description: as §1, §2

[7] = target: T5, DR6-Fc (human, UniProt O75509 42-349, limits assumed); experiment: SPR, antigen immobilised on CM5 chip
T5 construct: bought; also called human DR6 (R&D Systems, 144-DR-100); not shown: Fc part of the bought fusion
T5 sequence (looked up): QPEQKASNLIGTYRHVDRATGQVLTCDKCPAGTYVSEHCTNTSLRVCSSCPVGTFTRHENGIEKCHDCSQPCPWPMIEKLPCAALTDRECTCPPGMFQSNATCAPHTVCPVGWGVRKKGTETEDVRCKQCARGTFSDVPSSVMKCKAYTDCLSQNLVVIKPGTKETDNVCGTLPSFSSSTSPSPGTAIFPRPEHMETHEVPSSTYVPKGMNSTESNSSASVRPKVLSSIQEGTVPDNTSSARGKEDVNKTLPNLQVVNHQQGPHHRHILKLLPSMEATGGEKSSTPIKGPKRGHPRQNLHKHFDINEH
Description: as §1, §2

[8] = target: T6, TNFRSF1A-Fc (human, UniProt P19438 30-211, limits assumed); experiment: SPR, antigen immobilised on CM5 chip
T6 construct: bought; also called TNFRSF1A (R&D Systems, 372-RI-050/CF); not shown: Fc part of the bought fusion
T6 sequence (looked up): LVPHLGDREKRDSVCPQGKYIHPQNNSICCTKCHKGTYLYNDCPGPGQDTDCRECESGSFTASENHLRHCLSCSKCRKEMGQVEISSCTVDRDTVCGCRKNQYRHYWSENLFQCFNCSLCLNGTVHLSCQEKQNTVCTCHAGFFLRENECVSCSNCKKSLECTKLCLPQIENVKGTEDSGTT
Description: as §1, §2

[9] = target: T7, NGFR-Fc (human, UniProt P08138 29-250); experiment: SPR, antigen immobilised on CM5 chip
T7 construct: bought; also called NGFR (R&D Systems, 367-NR-050/CF); not shown: Fc part of the bought fusion
T7 sequence (looked up): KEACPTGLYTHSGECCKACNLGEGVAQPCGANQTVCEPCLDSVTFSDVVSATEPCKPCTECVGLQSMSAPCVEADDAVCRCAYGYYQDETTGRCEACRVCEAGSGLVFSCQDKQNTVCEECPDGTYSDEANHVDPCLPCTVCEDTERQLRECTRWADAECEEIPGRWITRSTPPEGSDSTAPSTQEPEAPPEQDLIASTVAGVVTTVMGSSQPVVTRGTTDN
Description: as §1, §2

[10] = target: T8, GITR-hFc-Avi (human, UniProt Q9Y5U5 26-161); experiment: SPR, antigen immobilised on CM5 chip
T8 construct: in-house produced; not shown: hFc and Avi part
T8 sequence: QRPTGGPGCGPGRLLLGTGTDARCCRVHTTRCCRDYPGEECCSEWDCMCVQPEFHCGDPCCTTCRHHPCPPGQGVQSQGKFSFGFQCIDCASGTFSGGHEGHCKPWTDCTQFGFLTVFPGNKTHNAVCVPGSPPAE
Description: as §1, §2

T1 sequence (Q07011 24-255): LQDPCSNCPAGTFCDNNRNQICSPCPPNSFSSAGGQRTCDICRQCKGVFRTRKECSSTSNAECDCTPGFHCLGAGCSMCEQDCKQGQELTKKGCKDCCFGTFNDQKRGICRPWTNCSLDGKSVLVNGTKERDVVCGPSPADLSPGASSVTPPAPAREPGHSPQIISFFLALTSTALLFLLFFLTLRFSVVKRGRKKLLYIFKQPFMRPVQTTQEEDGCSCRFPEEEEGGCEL

DO11.10-hCD137 T cell activation assay EC50 (nM), crosslinked [1]: 5.9 nM | fold change of cell binding at 10 nM against the parent clone [2]: < 1.3 fold
B1: FS20-22-49AA/FS30-5 variant, Methionine (100H) to L (bispecific antibody, V domains shown)
VH: EVQLLESGGGLVQPGGSLRLNCAASGFTFSSYAMSWVRQAPGKGLEWVSAISGSGGSTYYADSVKGRFTISRDNSKNTLYLQMNSLRAEDTAVYYCARSYDKYWGSSMYSGLDYWGQGTLVTVSS
VL: EIVLTQSPGTLSLSPGERATLSCRASQSVSSSYLAWYQQKPGQAPRLLIYGASSRATGIPDRFSGSGSGTDFTLTISRLEPEDFAVYYCQQYYSYYPVTFGQGTKVEIKR

fold change of cell binding at 10 nM against the parent clone [3]: < 1.6 fold
B2: FS20-22-49AA/FS30-16 variant, Methionine (100A) to P (bispecific antibody, V domains shown)
VH: EVQLLESGGGLVQPGGSLRLSCAASGFTFSNYAMHWVRQAPGKGLEWVSTIDPTDGATNYADSVKGRFTISRDNSKNTLYLQMNSLRAEDTAVYYCARSKYYTYPQYVALDYWGQGTLVTVSS
VL: B1 VL with Y92G, Y93S, S94R, Y95F, Y96F, V98I
notes: Single-site variant of the parent mAb^2 FS20-22-49AA/FS30-16

Kd [4]: 0.34 nM | binding result [5]: no binding | binding result [6]: no binding | binding result [7]: no binding | binding result [8]: no binding | binding result [9]: no binding | binding result [10]: no binding
B3: G1/MOR7480.1 (antibody, human IgG1, lambda)
heavy: not shown
light: SYELTQPPSVSVSPGQTASITCSGDNIGDQYAHWYQQKPGQSPVLVIYQDKNRPSGIPERFSGSNSGNTATLTISGTQAMDEADYYCATYTGFGSLAVFGGGTKLTVLGQPKAAPSVTLFPPSSEELQANKATLVCLISDFYPGAVTVAWKADSSPVKAGVETTTPSKQSNNKYAASSYLSLTPEQWKSHRSYSCQVTHEGSTVEKTVAPTECS
notes: human IgG1 without LALA; also called MOR7480.1 in IgG1 format
